Assay results published in patent US20240270846A1 (published 2024).

B1: CE115HA000 K64E one-arm antibody (antibody, human IgG1, kappa, L234A L235A, N297A, name in Kabat numbering)
heavy: QVQLVESGGGVVQPGRSLRLSCAASGFTFSNAWMHWVRQAPGKGLEWVAQIKAKSNNYATYYAESVEGRFTISRDDSKNSLYLQMNSLKTEDTAVYYCRYVHYGAYYGVDAWGQGTTVTVSSASTKGPSVFPLAPSSKSTSGGTAALGCLVKDYFPEPVTVSWNSGALTSGVHTFPAVLQSSGLYSLSSVVTVPSSSLGTQTYICNVNHKPSNTKVDKKVEPKSCDKTHTCPPCPAPEAAGGPSVFLFPPKPKDTLMISRTPEVTCVVVDVSHEDPEVKFNWYVDGVEVHNAKTKPREEQYASTYRVVSVLTVLHQDWLNGKEYKCKVSNKALPAPIEKTISKAKGQPREPQVYTLPPSRCELTKNQVSLSCAVKGFYPSDIAVEWESNGQPENNYKTTPPVLDSDGSFFLVSKLTVDKSRWQQGNVFSCSVMHEALHNHYTQKSLSLSPDYKDDDDK
chain: EPKSSDKTHTCPPCPAPELLGGPSVFLFPPKPKDTLMISRTPEVTCVVVDVSHEDPEVKFNWYVDGVEVHNAKTKPREEQYNSTYRVVSVLTVLHQDWLNGKEYKCKVSNKALPAPIEKTISKAKGQPREPQVCTLPPSRDELTKNQVSLWCLVKGFYPSDIAVEWESNGQPENNYKTTPPVLDSDGSFFLYSKLTVDKSRWQQGNVFSCSVMHEALHNRYTQKSLSLSP
light: DIVMTQSPLSLPVTPGEPASISCRSSQSLVHSNRNTYLHWYQQKPGQAPRLLIYKVSNRFSGVPDRFSGSGSGTDFTLKISRVEAEDVGVYYCGQGTQVPYTFGQGTKLEIKRTVAAPSVFIFPPSDEQLKSGTASVVCLLNNFYPREAKVQWKVDNALQSGNSQESVTEQDSKDSTYSLSSTLTLSKADYEKHKVYACEVTHQGLSSPVTKSFNRGEC
notes: one-arm antibody
B2: CE115HA000 K64Q one-arm antibody (antibody, human IgG1, kappa, L234A L235A, N297A, name in Kabat numbering)
heavy: QVQLVESGGGVVQPGRSLRLSCAASGFTFSNAWMHWVRQAPGKGLEWVAQIKAKSNNYATYYAESVQGRFTISRDDSKNSLYLQMNSLKTEDTAVYYCRYVHYGAYYGVDAWGQGTTVTVSSASTKGPSVFPLAPSSKSTSGGTAALGCLVKDYFPEPVTVSWNSGALTSGVHTFPAVLQSSGLYSLSSVVTVPSSSLGTQTYICNVNHKPSNTKVDKKVEPKSCDKTHTCPPCPAPEAAGGPSVFLFPPKPKDTLMISRTPEVTCVVVDVSHEDPEVKFNWYVDGVEVHNAKTKPREEQYASTYRVVSVLTVLHQDWLNGKEYKCKVSNKALPAPIEKTISKAKGQPREPQVYTLPPSRCELTKNQVSLSCAVKGFYPSDIAVEWESNGQPENNYKTTPPVLDSDGSFFLVSKLTVDKSRWQQGNVFSCSVMHEALHNHYTQKSLSLSPDYKDDDDK
chain: EPKSSDKTHTCPPCPAPELLGGPSVFLFPPKPKDTLMISRTPEVTCVVVDVSHEDPEVKFNWYVDGVEVHNAKTKPREEQYNSTYRVVSVLTVLHQDWLNGKEYKCKVSNKALPAPIEKTISKAKGQPREPQVCTLPPSRDELTKNQVSLWCLVKGFYPSDIAVEWESNGQPENNYKTTPPVLDSDGSFFLYSKLTVDKSRWQQGNVFSCSVMHEALHNRYTQKSLSLSP
light: DIVMTQSPLSLPVTPGEPASISCRSSQSLVHSNRNTYLHWYQQKPGQAPRLLIYKVSNRFSGVPDRFSGSGSGTDFTLKISRVEAEDVGVYYCGQGTQVPYTFGQGTKLEIKRTVAAPSVFIFPPSDEQLKSGTASVVCLLNNFYPREAKVQWKVDNALQSGNSQESVTEQDSKDSTYSLSSTLTLSKADYEKHKVYACEVTHQGLSSPVTKSFNRGEC
notes: one-arm antibody
B3: CE115HA000 K64S one-arm antibody (antibody, human IgG1, kappa, L234A L235A, N297A, name in Kabat numbering)
heavy: QVQLVESGGGVVQPGRSLRLSCAASGFTFSNAWMHWVRQAPGKGLEWVAQIKAKSNNYATYYAESVSGRFTISRDDSKNSLYLQMNSLKTEDTAVYYCRYVHYGAYYGVDAWGQGTTVTVSSASTKGPSVFPLAPSSKSTSGGTAALGCLVKDYFPEPVTVSWNSGALTSGVHTFPAVLQSSGLYSLSSVVTVPSSSLGTQTYICNVNHKPSNTKVDKKVEPKSCDKTHTCPPCPAPEAAGGPSVFLFPPKPKDTLMISRTPEVTCVVVDVSHEDPEVKFNWYVDGVEVHNAKTKPREEQYASTYRVVSVLTVLHQDWLNGKEYKCKVSNKALPAPIEKTISKAKGQPREPQVYTLPPSRCELTKNQVSLSCAVKGFYPSDIAVEWESNGQPENNYKTTPPVLDSDGSFFLVSKLTVDKSRWQQGNVFSCSVMHEALHNHYTQKSLSLSPDYKDDDDK
chain: EPKSSDKTHTCPPCPAPELLGGPSVFLFPPKPKDTLMISRTPEVTCVVVDVSHEDPEVKFNWYVDGVEVHNAKTKPREEQYNSTYRVVSVLTVLHQDWLNGKEYKCKVSNKALPAPIEKTISKAKGQPREPQVCTLPPSRDELTKNQVSLWCLVKGFYPSDIAVEWESNGQPENNYKTTPPVLDSDGSFFLYSKLTVDKSRWQQGNVFSCSVMHEALHNRYTQKSLSLSP
light: DIVMTQSPLSLPVTPGEPASISCRSSQSLVHSNRNTYLHWYQQKPGQAPRLLIYKVSNRFSGVPDRFSGSGSGTDFTLKISRVEAEDVGVYYCGQGTQVPYTFGQGTKLEIKRTVAAPSVFIFPPSDEQLKSGTASVVCLLNNFYPREAKVQWKVDNALQSGNSQESVTEQDSKDSTYSLSSTLTLSKADYEKHKVYACEVTHQGLSSPVTKSFNRGEC
notes: one-arm antibody
B4: CE115HA000 K75R one-arm antibody (antibody, human IgG1, kappa, L234A L235A, N297A, name in Kabat numbering)
heavy: QVQLVESGGGVVQPGRSLRLSCAASGFTFSNAWMHWVRQAPGKGLEWVAQIKAKSNNYATYYAESVKGRFTISRDDSRNSLYLQMNSLKTEDTAVYYCRYVHYGAYYGVDAWGQGTTVTVSSASTKGPSVFPLAPSSKSTSGGTAALGCLVKDYFPEPVTVSWNSGALTSGVHTFPAVLQSSGLYSLSSVVTVPSSSLGTQTYICNVNHKPSNTKVDKKVEPKSCDKTHTCPPCPAPEAAGGPSVFLFPPKPKDTLMISRTPEVTCVVVDVSHEDPEVKFNWYVDGVEVHNAKTKPREEQYASTYRVVSVLTVLHQDWLNGKEYKCKVSNKALPAPIEKTISKAKGQPREPQVYTLPPSRCELTKNQVSLSCAVKGFYPSDIAVEWESNGQPENNYKTTPPVLDSDGSFFLVSKLTVDKSRWQQGNVFSCSVMHEALHNHYTQKSLSLSPDYKDDDDK
chain: EPKSSDKTHTCPPCPAPELLGGPSVFLFPPKPKDTLMISRTPEVTCVVVDVSHEDPEVKFNWYVDGVEVHNAKTKPREEQYNSTYRVVSVLTVLHQDWLNGKEYKCKVSNKALPAPIEKTISKAKGQPREPQVCTLPPSRDELTKNQVSLWCLVKGFYPSDIAVEWESNGQPENNYKTTPPVLDSDGSFFLYSKLTVDKSRWQQGNVFSCSVMHEALHNRYTQKSLSLSP
light: DIVMTQSPLSLPVTPGEPASISCRSSQSLVHSNRNTYLHWYQQKPGQAPRLLIYKVSNRFSGVPDRFSGSGSGTDFTLKISRVEAEDVGVYYCGQGTQVPYTFGQGTKLEIKRTVAAPSVFIFPPSDEQLKSGTASVVCLLNNFYPREAKVQWKVDNALQSGNSQESVTEQDSKDSTYSLSSTLTLSKADYEKHKVYACEVTHQGLSSPVTKSFNRGEC
notes: one-arm antibody
B5: CE115HA000 K75T one-arm antibody (antibody, human IgG1, kappa, L234A L235A, N297A, name in Kabat numbering)
heavy: QVQLVESGGGVVQPGRSLRLSCAASGFTFSNAWMHWVRQAPGKGLEWVAQIKAKSNNYATYYAESVKGRFTISRDDSTNSLYLQMNSLKTEDTAVYYCRYVHYGAYYGVDAWGQGTTVTVSSASTKGPSVFPLAPSSKSTSGGTAALGCLVKDYFPEPVTVSWNSGALTSGVHTFPAVLQSSGLYSLSSVVTVPSSSLGTQTYICNVNHKPSNTKVDKKVEPKSCDKTHTCPPCPAPEAAGGPSVFLFPPKPKDTLMISRTPEVTCVVVDVSHEDPEVKFNWYVDGVEVHNAKTKPREEQYASTYRVVSVLTVLHQDWLNGKEYKCKVSNKALPAPIEKTISKAKGQPREPQVYTLPPSRCELTKNQVSLSCAVKGFYPSDIAVEWESNGQPENNYKTTPPVLDSDGSFFLVSKLTVDKSRWQQGNVFSCSVMHEALHNHYTQKSLSLSPDYKDDDDK
chain: EPKSSDKTHTCPPCPAPELLGGPSVFLFPPKPKDTLMISRTPEVTCVVVDVSHEDPEVKFNWYVDGVEVHNAKTKPREEQYNSTYRVVSVLTVLHQDWLNGKEYKCKVSNKALPAPIEKTISKAKGQPREPQVCTLPPSRDELTKNQVSLWCLVKGFYPSDIAVEWESNGQPENNYKTTPPVLDSDGSFFLYSKLTVDKSRWQQGNVFSCSVMHEALHNRYTQKSLSLSP
light: DIVMTQSPLSLPVTPGEPASISCRSSQSLVHSNRNTYLHWYQQKPGQAPRLLIYKVSNRFSGVPDRFSGSGSGTDFTLKISRVEAEDVGVYYCGQGTQVPYTFGQGTKLEIKRTVAAPSVFIFPPSDEQLKSGTASVVCLLNNFYPREAKVQWKVDNALQSGNSQESVTEQDSKDSTYSLSSTLTLSKADYEKHKVYACEVTHQGLSSPVTKSFNRGEC
notes: one-arm antibody
B6: CE115HA000 L78I one-arm antibody (antibody, human IgG1, kappa, L234A L235A, N297A, name in Kabat numbering)
heavy: QVQLVESGGGVVQPGRSLRLSCAASGFTFSNAWMHWVRQAPGKGLEWVAQIKAKSNNYATYYAESVKGRFTISRDDSKNSIYLQMNSLKTEDTAVYYCRYVHYGAYYGVDAWGQGTTVTVSSASTKGPSVFPLAPSSKSTSGGTAALGCLVKDYFPEPVTVSWNSGALTSGVHTFPAVLQSSGLYSLSSVVTVPSSSLGTQTYICNVNHKPSNTKVDKKVEPKSCDKTHTCPPCPAPEAAGGPSVFLFPPKPKDTLMISRTPEVTCVVVDVSHEDPEVKFNWYVDGVEVHNAKTKPREEQYASTYRVVSVLTVLHQDWLNGKEYKCKVSNKALPAPIEKTISKAKGQPREPQVYTLPPSRCELTKNQVSLSCAVKGFYPSDIAVEWESNGQPENNYKTTPPVLDSDGSFFLVSKLTVDKSRWQQGNVFSCSVMHEALHNHYTQKSLSLSPDYKDDDDK
chain: EPKSSDKTHTCPPCPAPELLGGPSVFLFPPKPKDTLMISRTPEVTCVVVDVSHEDPEVKFNWYVDGVEVHNAKTKPREEQYNSTYRVVSVLTVLHQDWLNGKEYKCKVSNKALPAPIEKTISKAKGQPREPQVCTLPPSRDELTKNQVSLWCLVKGFYPSDIAVEWESNGQPENNYKTTPPVLDSDGSFFLYSKLTVDKSRWQQGNVFSCSVMHEALHNRYTQKSLSLSP
light: DIVMTQSPLSLPVTPGEPASISCRSSQSLVHSNRNTYLHWYQQKPGQAPRLLIYKVSNRFSGVPDRFSGSGSGTDFTLKISRVEAEDVGVYYCGQGTQVPYTFGQGTKLEIKRTVAAPSVFIFPPSDEQLKSGTASVVCLLNNFYPREAKVQWKVDNALQSGNSQESVTEQDSKDSTYSLSSTLTLSKADYEKHKVYACEVTHQGLSSPVTKSFNRGEC
notes: one-arm antibody

What follows are binders tested against T1, CD3 epsilon homodimer protein (UniProt P07766 23-126) (assay: SPR (Biacore T200), CD3 epsilon homodimer on CM4 chip, one-arm antibody as analyte; ratio to unaltered CE115HA000;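 note: surface plasmon resonance run at 25 °C with HBS-EP+ as running buffer, CD3 epsilon homodimer attached by amine coupling, antibody passed over as analyte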).
T1 construct: Construct of the homodimer protein is not described; also called CD3 (CD3 epsilon)
T1 sequence (P07766 23-126): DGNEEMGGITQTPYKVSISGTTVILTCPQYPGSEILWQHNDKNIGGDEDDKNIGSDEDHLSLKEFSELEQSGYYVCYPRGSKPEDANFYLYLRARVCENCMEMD

First: B1
Second: B2
The “KD ratio (KD value of CE115HA000/KD value of the altered form)” value (“KD ratio” for short) of the first is lower: 0.84 for the first, 0.87 for the second.

Going from B3 to B4, the “KD ratio” value rises from 0.85 to 0.88.

Compared with B5, B6 is higher in “KD ratio” value: 0.75 for the first, 1.08 for the second.
